To fix the notation:
T1: CHRM1-VC (human, UniProt P11229 1-460)
T1 construct: whole, on cells; Adenovirus-expressed in U-2 OS cells; not shown: VC155, C-terminal fragment of Venus
T1 sequence (looked up): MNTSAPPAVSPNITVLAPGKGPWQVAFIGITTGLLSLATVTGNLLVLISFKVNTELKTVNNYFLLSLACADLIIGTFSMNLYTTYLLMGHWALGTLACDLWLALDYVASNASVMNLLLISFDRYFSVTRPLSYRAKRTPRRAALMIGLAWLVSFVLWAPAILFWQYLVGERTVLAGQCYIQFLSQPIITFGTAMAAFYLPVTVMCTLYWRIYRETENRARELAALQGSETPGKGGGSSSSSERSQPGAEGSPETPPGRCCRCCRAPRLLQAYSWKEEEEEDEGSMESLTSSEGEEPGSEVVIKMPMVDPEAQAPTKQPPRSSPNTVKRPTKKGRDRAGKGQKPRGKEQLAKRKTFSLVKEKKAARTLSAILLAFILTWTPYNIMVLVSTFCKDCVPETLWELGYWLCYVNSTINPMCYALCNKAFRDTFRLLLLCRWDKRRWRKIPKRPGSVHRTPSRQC

T2: EDNRB-VC (human, UniProt P24530 27-442)
T2 construct: whole, on cells; Adenovirus-expressed in U-2 OS cells; not shown: VC155, C-terminal fragment of Venus
T2 sequence (looked up): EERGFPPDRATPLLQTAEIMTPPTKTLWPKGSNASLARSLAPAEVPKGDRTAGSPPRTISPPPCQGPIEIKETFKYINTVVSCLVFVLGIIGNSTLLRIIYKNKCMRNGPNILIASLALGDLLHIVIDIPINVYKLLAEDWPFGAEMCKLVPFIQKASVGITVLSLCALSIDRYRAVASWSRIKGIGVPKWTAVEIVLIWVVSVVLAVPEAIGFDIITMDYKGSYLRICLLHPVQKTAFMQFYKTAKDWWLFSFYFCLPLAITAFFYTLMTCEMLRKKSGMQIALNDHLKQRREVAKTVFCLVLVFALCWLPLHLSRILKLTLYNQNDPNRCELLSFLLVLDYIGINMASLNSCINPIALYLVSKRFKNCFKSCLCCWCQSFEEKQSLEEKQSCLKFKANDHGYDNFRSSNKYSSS

T3: TACR3-VC (human, UniProt P29371 1-465)
T3 construct: whole, on cells; Adenovirus-expressed in U-2 OS cells; not shown: VC155, C-terminal fragment of Venus
T3 sequence (looked up): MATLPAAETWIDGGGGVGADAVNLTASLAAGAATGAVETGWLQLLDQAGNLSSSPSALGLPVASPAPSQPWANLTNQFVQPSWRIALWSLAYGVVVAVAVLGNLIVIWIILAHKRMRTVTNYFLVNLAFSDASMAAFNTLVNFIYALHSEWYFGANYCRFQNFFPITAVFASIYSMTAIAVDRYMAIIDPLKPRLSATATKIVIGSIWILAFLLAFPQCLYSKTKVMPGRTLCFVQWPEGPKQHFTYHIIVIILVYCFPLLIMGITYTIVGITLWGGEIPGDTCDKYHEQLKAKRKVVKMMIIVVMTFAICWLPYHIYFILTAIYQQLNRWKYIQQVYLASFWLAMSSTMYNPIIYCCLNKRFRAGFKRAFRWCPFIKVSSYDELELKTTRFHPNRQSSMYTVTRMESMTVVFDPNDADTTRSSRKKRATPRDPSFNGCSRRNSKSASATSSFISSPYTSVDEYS

T4: APLNR-VC (human, UniProt P35414 1-380)
T4 construct: whole, on cells; Adenovirus-expressed in U-2 OS cells; not shown: VC155, C-terminal fragment of Venus
T4 sequence (looked up): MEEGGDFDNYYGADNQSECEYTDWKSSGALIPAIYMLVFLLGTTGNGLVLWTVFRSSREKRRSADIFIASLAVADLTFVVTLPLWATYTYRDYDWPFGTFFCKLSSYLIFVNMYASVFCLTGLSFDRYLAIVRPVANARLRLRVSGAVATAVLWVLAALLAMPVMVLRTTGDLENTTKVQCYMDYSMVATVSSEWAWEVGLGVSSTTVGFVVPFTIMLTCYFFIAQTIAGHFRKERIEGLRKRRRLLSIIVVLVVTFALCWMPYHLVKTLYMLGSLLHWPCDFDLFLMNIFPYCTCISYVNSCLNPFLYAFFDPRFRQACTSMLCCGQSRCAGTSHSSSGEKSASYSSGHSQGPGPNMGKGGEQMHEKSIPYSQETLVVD

T5: CHRM1 (human, UniProt P11229 1-460)
T5 construct: whole, on cells; Untagged: adenovirus-expressed in U-2 OS or MDA-MB-231 cells, or endogenous in patient derived cells; also called Cholinergic Receptor Muscarinic 1
T5 sequence (looked up): T1 sequence (looked up)

B1: ADRA1A-VC (receptor, human, UniProt P35348 1-466, looked up)
chain: MVFLSGNASDSSNCTQPPAPVNISKAILLGVILGGLILFGVLGNILVILSVACHRHLHSVTHYYIVNLAVADLLLTSTVLPFSAIFEVLGYWAFGRVFCNIWAAVDVLCCTASIMGLCIISIDRYIGVSYPLRYPTIVTQRRGLMALLCVWALSLVISIGPLFGWRQPAPEDETICQINEEPGYVLFSALGSFYLPLAIILVMYCRVYVVAKRESRGLKSGLKTDKSDSEQVTLRIHRKNAPAGGSGMASAKTKTHFSVRLLKFSREKKAAKTLGIVVGCFVLCWLPFFLVMPIGSFFPDFKPSETVFKIVFWLGYLNSCINPIIYPCSSQEFKKAFQNVLRIQCLCRKQSSKHALGYTLHPPSQAVEGQHKDMVRIPVGSRETFYRISKTDGVCEWKFFSSMPRGSARITVSKDQSSCTTARVRSKSFLQVCCCVGPSTPSLDKNHQVPTIKVHTISLSENGEEV
notes: whole, on cells; Adenovirus-expressed in U-2 OS cells; not shown: VC155, C-terminal fragment of Venus
B2: CXCR4-EGFP (receptor, human, UniProt P61073 1-352, looked up)
chain: MEGISIYTSDNYTEEMGSGDYDSMKEPCFREENANFNKIFLPTIYSIIFLTGIVGNGLVILVMGYQKKLRSMTDKYRLHLSVADLLFVITLPFWAVDAVANWYFGNFLCKAVHVIYTVNLYSSVLILAFISLDRYLAIVHATNSQRPRKLLAEKVVYVGVWIPALLLTIPDFIFANVSEADDRYICDRFYPNDLWVVVFQFQHIMVGLILPGIVILSCYCIIISKLSHSKGHQKRKALKTTVILILAFFACWLPYYIGISIDSFILLEIIKQGCEFENTVHKWISITEALAFFHCCLNPILYAFLGAKFKTSAQHALTSVSRGSSLKILSKGKRGGHSSVSTESESSSFHSS
notes: whole, on cells; also called CXCR4-GFP; CXCR-EGFP; not shown: EGFP/GFP from the pAdHTS-GFPC vector
B3: CXCR4-VN (receptor, human, UniProt P61073 1-352, looked up)
chain: B2 chain
notes: whole, on cells; Adenovirus-expressed in U-2 OS cells; also called CXCR4 fused with N-terminal fragment of Venus; not shown: VNm10, N-terminal fragment of Venus (VN154 variant with L46F and L64F)

The target of assay [1] is B3. Kind of assay: BiFC, U-2 OS cells; score=(positive cells/total cells)x100. Here is the method:
(§1) Images of about 200 cells from each well were analyzed with Multi-target analysis software in IN Cell Developer ToolBox (GE Healthcare, Waukesha, Wis.). Cell boundary was marked based on Hoechst signal, and fluorescence intensity per cell was measured. Cells with fluorescence intensities higher than background level were considered as BiFC positive cells. […] Positive cells were determined, and positive cell count ratio (“BiFC score”) was calculated as (positive cells/total cells)×100 (see Table 4 below).

Assay [2] deals with T1, CHRM1-VC. Kind of assay: co-internalization of CXCR4-GFP after GPCRx agonist, U-2 OS cells. How it is done:
(§2) Images were obtained before and 30 min after agonist stimulation, and analyzed using IN Cell Analyzer 2000.
(§3) U-2 OS cells were seeded at a density of 3000 cells per well in a black 96-well clear-bottom plate in 100 μl of McCoy's 5A medium supplemented with 10% FBS. […] Two days post-transduction, cells were stimulated with GPCRx agonists for 30 min and fixed with 2% formaldehyde.

The target of assay [3] is T2, EDNRB-VC. The assay is described as above. Here is the method: as §2, §3
For assay [4], the target named is T6, HRH1-VC (human, UniProt P35367 1-487).
T6 construct: whole, on cells; Adenovirus-expressed in U-2 OS cells; not shown: VC155, C-terminal fragment of Venus
T6 sequence (P35367 whole entry, the tested form may be a part): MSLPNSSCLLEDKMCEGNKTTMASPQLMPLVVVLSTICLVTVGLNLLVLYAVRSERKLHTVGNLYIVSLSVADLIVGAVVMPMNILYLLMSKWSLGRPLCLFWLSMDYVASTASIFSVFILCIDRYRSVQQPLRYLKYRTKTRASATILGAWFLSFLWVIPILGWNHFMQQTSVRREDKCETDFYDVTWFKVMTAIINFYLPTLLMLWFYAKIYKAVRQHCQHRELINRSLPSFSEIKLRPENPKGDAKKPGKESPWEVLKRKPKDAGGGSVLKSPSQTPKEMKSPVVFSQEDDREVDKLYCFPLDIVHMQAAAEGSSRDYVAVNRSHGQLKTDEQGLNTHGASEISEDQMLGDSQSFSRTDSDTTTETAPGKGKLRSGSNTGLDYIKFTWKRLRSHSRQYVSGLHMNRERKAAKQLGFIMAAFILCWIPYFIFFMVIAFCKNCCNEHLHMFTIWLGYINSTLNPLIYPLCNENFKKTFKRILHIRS
The assay is described as above. Here is the method: as §2, §3

The target in assay [5] is T7, MLNR-VC (human, UniProt O43193 1-412).
T7 construct: whole, on cells; Adenovirus-expressed in U-2 OS cells; not shown: VC155, C-terminal fragment of Venus
T7 sequence (O43193 whole entry, the tested form may be a part): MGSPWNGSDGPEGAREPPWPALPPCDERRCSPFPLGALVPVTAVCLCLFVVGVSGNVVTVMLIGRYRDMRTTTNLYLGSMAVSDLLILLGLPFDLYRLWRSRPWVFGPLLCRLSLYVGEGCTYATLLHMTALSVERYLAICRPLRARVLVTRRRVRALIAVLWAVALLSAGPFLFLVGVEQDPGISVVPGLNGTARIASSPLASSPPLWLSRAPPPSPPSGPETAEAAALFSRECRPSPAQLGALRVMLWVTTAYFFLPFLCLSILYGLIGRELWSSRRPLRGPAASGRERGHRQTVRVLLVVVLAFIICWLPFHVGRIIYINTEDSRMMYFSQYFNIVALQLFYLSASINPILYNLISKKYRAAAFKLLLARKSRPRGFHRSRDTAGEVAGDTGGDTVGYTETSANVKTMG
The description is as above. Here is the method: as §2, §3

The target in assay [6] is T8, NTSR1-VC (human, UniProt P30989 1-418).
T8 construct: whole, on cells; Adenovirus-expressed in U-2 OS cells; not shown: VC155, C-terminal fragment of Venus
T8 sequence (P30989 whole entry, the tested form may be a part): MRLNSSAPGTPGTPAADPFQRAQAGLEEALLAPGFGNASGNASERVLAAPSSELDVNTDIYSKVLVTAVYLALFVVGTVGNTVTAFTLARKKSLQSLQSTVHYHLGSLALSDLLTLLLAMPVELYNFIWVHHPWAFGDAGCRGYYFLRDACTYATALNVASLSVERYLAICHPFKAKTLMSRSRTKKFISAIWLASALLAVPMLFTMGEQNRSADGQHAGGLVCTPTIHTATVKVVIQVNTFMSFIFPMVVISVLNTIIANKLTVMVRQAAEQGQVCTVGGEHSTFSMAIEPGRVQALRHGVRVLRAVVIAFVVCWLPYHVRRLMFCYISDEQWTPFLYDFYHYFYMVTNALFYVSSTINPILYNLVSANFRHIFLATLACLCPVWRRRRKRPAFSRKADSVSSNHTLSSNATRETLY
The description is as above. Here is the method: as §2, §3

Assay [7] deals with T9, SSTR2-VC (human, UniProt P30874 1-369).
T9 construct: whole, on cells; Adenovirus-expressed in U-2 OS cells; not shown: VC155, C-terminal fragment of Venus
T9 sequence (P30874 whole entry, the tested form may be a part): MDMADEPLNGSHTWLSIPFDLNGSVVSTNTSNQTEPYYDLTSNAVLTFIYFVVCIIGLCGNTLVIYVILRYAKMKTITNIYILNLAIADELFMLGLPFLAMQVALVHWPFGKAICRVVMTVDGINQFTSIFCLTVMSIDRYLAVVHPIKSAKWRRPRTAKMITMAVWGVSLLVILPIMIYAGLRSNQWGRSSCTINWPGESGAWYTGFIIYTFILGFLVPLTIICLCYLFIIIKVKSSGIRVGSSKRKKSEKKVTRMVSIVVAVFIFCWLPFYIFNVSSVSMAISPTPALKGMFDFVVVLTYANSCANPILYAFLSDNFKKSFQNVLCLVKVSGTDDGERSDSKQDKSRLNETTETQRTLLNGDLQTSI
Described as above. Here is the method: as §2, §3

Assay [8] deals with T3, TACR3-VC. The description is as above. How it is done: as §2, §3
Assay [9] has as its target T10, ADRB2-VC (human, UniProt P07550 1-413).
T10 construct: whole, on cells; Adenovirus-expressed in U-2 OS cells; not shown: VC155, C-terminal fragment of Venus
Described as above. How it is done: as §2, §3

Assay [10] concerns the target T4, APLNR-VC. Described as above. Here is the method:
as §2, §3

Assay [11] concerns the target T11, ADRB2 (human, UniProt P07550 1-413).
T11 construct: whole, on cells; Untagged: adenovirus-expressed in U-2 OS or MDA-MB-231 cells, or endogenous in patient derived cells and PDX tissue; also called Adrenoceptor Beta 2; Ad-ADRB2
Kind of assay: internalization inhibition assay, CXCR4-GFP U-2 OS cells transduced with GPCRx; CXCL12 and/or GPCRx antagonist. Here is the method:
(§4) Internalization of CXCR4-GFP was observed as GFP granules using IN Cell Analyzer 2500. Loss of GFP expression on the cell surface or appearance of GFP granules inside the cells were considered as CXCR4-GFP co-internalization.
(§5) CXCR4-GFP expressed U-2 OS cells were seeded at a density of 5000 cells per well in a black 96-well clear-bottom plate in 100 μl of McCoy's 5A medium supplemented with 10% FBS. On the following day, the cells were transduced with adenoviruses encoding GPCRx (30 MOI).

The target of assay [12] is T5, CHRM1. The assay is described as above. Here is the method:
as §4, §5

Assay [13] deals with T12, HRH1 (human, UniProt P35367 1-487).
T12 construct: whole, on cells; Untagged: adenovirus-expressed in U-2 OS or MDA-MB-231 cells, or endogenous in MDA-MB-231 cells; also called Histamine Receptor H1
T12 sequence (P35367 whole entry): as the sequence (P35367 whole entry, the tested form may be a part) above
Described as above. How it is done: as §4, §5

Assay [14] has as its target T1, CHRM1-VC. Kind of assay: BiFC, U-2 OS cells. How it is done:
as §1

Assay [15] deals with T2, EDNRB-VC. The experiment in a line: BiFC, U-2 OS cells. How it is done:
as §1

Assay [16] deals with T6, HRH1-VC. The experiment in a line: BiFC, U-2 OS cells. Here is the method: as §1
Assay [17] deals with T7, MLNR-VC. The experiment in a line: BiFC, U-2 OS cells. Here is the method:
as §1

The target of assay [18] is T8, NTSR1-VC. Kind of assay: BiFC, U-2 OS cells. How it is done:
as §1

The target in assay [19] is T13, PTGER2-VC (human, UniProt P43116 1-358).
T13 construct: whole, on cells; Adenovirus-expressed in U-2 OS cells; not shown: VC155, C-terminal fragment of Venus
T13 sequence (P43116 whole entry, the tested form may be a part): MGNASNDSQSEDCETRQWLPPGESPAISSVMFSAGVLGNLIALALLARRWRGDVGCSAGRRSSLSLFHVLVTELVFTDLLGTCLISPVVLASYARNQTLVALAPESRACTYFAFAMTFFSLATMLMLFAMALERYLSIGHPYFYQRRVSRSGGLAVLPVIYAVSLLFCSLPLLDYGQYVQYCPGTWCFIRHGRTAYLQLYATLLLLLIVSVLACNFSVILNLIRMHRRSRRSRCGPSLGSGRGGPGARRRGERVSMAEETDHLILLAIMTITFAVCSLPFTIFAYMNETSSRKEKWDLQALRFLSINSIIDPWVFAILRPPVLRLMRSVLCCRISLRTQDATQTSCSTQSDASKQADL
Kind of assay: BiFC, U-2 OS cells. Here is the method: as §1

In assay [20] the target is T3, TACR3-VC. Kind of assay: BiFC, U-2 OS cells. Here is the method: as §1
Assay [21] addresses T10, ADRB2-VC. The experiment in a line: BiFC, U-2 OS cells. Here is the method: as §1
The target of assay [22] is T9, SSTR2-VC. Kind of assay: BiFC and co-internalization assay, U-2 OS cells.
For assay [23], the target named is T14, CNR2-VC (human, UniProt P34972 1-360).
T14 construct: whole, on cells; Adenovirus-expressed in U-2 OS cells; also called Cannabinoid Receptor 2-VC; CB2; not shown: VC155, C-terminal fragment of Venus
T14 sequence (P34972 whole entry, the tested form may be a part): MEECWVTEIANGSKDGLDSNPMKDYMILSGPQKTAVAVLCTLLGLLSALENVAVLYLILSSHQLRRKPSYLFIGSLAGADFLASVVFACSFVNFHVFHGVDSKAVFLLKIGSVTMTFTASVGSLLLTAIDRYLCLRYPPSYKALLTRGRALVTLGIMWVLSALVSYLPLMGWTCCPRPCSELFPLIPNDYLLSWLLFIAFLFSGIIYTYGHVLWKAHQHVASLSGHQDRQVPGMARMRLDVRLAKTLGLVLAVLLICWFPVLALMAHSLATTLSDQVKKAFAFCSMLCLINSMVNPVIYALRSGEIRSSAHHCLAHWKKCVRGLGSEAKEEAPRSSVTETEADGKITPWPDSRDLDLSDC
Kind of assay: BiFC and co-internalization assay, U-2 OS cells.

For assay [24], the target named is T4, APLNR-VC. The experiment in a line: BiFC and co-internalization assay, U-2 OS cells.
Assay [25] deals with T15, GCGR-VC (human, UniProt P47871 26-477).
T15 construct: whole, on cells; Adenovirus-expressed in U-2 OS cells; also called glucagon receptor-VC; not shown: VC155, C-terminal fragment of Venus
T15 sequence (P47871 26-477): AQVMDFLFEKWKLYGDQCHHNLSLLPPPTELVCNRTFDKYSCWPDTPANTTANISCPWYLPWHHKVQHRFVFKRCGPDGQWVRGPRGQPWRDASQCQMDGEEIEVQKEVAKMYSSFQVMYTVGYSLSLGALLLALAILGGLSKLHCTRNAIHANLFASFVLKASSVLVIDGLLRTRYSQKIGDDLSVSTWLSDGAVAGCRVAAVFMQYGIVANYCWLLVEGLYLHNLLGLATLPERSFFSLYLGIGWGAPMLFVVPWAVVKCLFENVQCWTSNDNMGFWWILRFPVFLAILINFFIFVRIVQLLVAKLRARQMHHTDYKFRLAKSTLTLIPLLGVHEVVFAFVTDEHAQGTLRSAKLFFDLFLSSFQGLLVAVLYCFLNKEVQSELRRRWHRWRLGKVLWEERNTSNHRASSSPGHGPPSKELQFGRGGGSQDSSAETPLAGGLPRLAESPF
Kind of assay: BiFC, U-2 OS cells co-expressing CXCR4-VN and GCGR-VC. Here is the method: as §1

Take B1: the BiFC score in assay [1] was determined as 7.85.

Regarding B2, the binding result in [2], in assay [3], in assay [4], in assay [5], in assay [6] and in assay [7] was “binds” in each case. Moreover, the binding result in [8], in [9], in assay [10], in assay [11], in assay [12] and in assay [13] was “binds” throughout.

For the molecule B3, the binding result in assay [14], in [15], in assay [16], in assay [17], in assay [18] and in assay [19] was “binds” throughout. The binding result is recorded as “binds” in assay [20]; “binds” in [21]; “binds” in assay [22]; “binds” in [23]; “binds” in [24]; “no binding” in assay [25].

The record behind these values is US20190183976A1 (GPCR THERAPEUTICS, published 2019).
